Test [1] deals with T1, human BiP (Homo sapiens, UniProt P11021).
T1 construct: The human BiP gene except the signal peptide encoding region was obtained from Geneart (Germany); linker […]; made in house; host or cells: HEK 293E cells, transient transfection, PABC674 vector; secreted into the medium
The experiment in a line: ELISA: binding of BiP-FLAG-His to immobilized (misfolded) protein ligands. To be noted: ligands coated at 5 μg/ml; 6BB peptides and oxLDL 50 μg/ml. As for the experimental part: Enzyme Linked Immunosorbent Assay for Testing of Chaperone Binding to Misfolded Proteins
Binding of chaperones to immobilized (misfolded) protein ligands was determined using an enzyme linked immuno sorbent assay (ELISA) approach. For this purpose 50 μl/well of potential ligands at indicated concentrations or coat buffer only for control and background measurement purposes, were coated overnight at 4° C. or coated for 1 h at room temperature, with motion, in 50 mM NaHCO3 pH 9.6 (coat buffer). In general, ligands were coated at 5 μg/ml, unless stated otherwise. For example, BiP binding peptides 6BB# and oxLDL were coated at 50 μg/ml. Native haemoglobin (Sigma-Aldrich, H7379), albumin, IgIV Gammagard and ovalbumin controls were prepared from lyophilized stocks. The controls were prepared by dissolving lyophilized proteins at 1 mg/ml in PBS upon resuspending by pipetting, followed by a 30 minutes period at the roller device, at room temperature. The protein solutions were centrifuged for 10 minutes at 16,000*g and diluted in coat buffer. After coating the plates were washed at least three times with 50 mM Tris-HCl pH 7.3, 150 mM NaCl, 0.1% v/v Tween20, and blocked with Blocking reagent (Roche Diagnostics, Almere, The Netherlands; 11112589001), for 1 h at room temperature, with motion. Plates were washed three times and incubated in triplicate with indicated chaperone dilution series, at 50 μl/well, for 1 h at room temperature, with constant motion. For HSP90, 5 mM DTT is incorporated in the binding buffer (PBS/0.1% Tween20) to avoid unwanted disulfide bond formation of the HSP90. Plates were washed three times and incubated with anti-FLAG antibody (mouse antibody, M2, peroxidase conjugate; Sigma, A-8592) for BiP-FLAG-His, anti-His-tag antibody (Mouse Monoclonal Antibody, Cat. No. 70796, Novagen [0.2 mg/ml]) for HSP60, a 1:1 mix of 500-fold diluted anti-HSP90beta antibodies (Stressgen, SPA-643 [mouse monoclonal IgM], SPA-646 [rabbit polyclonal]) for HSP90 and an anti-DnaK antibody (Stressgen, 023SPA-880D [mouse monoclonal antibody]) for DnaK. After four wash cycles, secondary antibodies were added to the wells when required, 50 μl/well, for 45′ at room temperature, with motion. RAMPO and SWARPO were used at 3000 times dilution. […] In a second experiment with more immobilized misfolded proteins and controls, the detection of bound HSP90 with the mix of two anti-HSP90 antibodies was achieved by mixing 1:1500 SWARPO with 1:3000 RAMPO. After 5 washes with wash buffer followed by two washes with PBS, binding of antibodies was assessed. Bound anti-FLAG-PO, peroxidase-conjugated rabbit anti-mouse immunoglobulins (RAMPO, P0260, DAKOCytomation, Glostrup, Denmark) or peroxidase-coupled swine anti-rabbit immunoglobulins (SWARPO, P0217, DAKOCytomation) was visualized with tetramethylbenzidine (TMB, #45.01.20,/#45.014.01, Biosource, Nivelles, Belgium). The reaction was stopped after 5 minutes with 1% H2SO4 in H2O. Plates were read at 450 nm. Triplicates were averaged and standard deviations calculated. Background signals obtained with buffer-coated wells were subtracted (binding of primary antibody to empty wells), as well as background signals obtained with ligand-coated wells in which the chaperones were omitted (binding of primary and secondary antibody to coated ligands). Subsequently, sub-optimal concentrations of chaperones for binding to misfolded protein ligands are determined, and these concentrations are used for inhibition studies. […] We have previously identified that a sub-fraction of IgIV molecules has affinity for misfolded proteins comprising crossbeta structure (pending patent application). Moreover, we identified that the sub-fraction of IgIV molecules directly binds to crossbeta structure and/or crossbeta structure induced conformation (not shown; pending patent application). […]
Background: ELISA stands for enzyme-linked immunosorbent assay.

Another test has as its target T2, factor XII in plasma (Homo sapiens, UniProt P00748).
T2 construct: from tissue; host or cells: plasma
T2 sequence (P00748 20-615): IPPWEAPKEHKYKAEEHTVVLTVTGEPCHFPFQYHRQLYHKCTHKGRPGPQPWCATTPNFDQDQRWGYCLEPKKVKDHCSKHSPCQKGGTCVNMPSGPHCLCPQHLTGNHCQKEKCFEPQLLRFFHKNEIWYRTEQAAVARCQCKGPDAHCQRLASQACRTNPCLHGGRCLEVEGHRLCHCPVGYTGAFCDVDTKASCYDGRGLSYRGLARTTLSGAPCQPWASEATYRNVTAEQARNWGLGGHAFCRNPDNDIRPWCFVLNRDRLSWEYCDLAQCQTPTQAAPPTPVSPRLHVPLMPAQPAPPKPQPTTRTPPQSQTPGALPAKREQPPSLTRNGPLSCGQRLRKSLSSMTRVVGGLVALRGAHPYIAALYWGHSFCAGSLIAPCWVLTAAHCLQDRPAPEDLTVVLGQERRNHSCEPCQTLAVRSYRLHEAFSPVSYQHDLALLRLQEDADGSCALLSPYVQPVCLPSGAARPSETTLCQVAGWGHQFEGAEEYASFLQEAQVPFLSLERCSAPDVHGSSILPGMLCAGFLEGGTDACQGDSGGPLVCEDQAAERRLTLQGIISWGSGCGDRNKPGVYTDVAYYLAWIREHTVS
The experiment in a line: Factor XII activation assay (direct, substrate S-2222). Type of test: biochemical. To be noted: chromogenic substrate S-2222. The method, then:
Alternatively, activation of factor XII was assessed directly by omitting prekallikrein and using a factor XII chromogenic substrate, S-2222 (Chromogenix, Italy).

In test [2] the target is T1, human BiP. The experiment in a line: ELISA: binding of BiP in cell culture supernatant to immobilized misfolded proteins. To be noted: undiluted supernatant of 293E cells overexpressing BiP; ligands coated at 5 μg/ml, Aβ 20 μg/ml. As for the experimental part:
Binding of BiP to Misfolded Proteins with Crossbeta Structure
Proteins at 5 μg/ml were coated for 1 h at room temperature with agitation, in Microlon high-binding ELISA plates (Greiner) in 50 mM NaHCO3 pH 9.6, except for Aβ that was coated at 20 μg/ml. Buffer was coated as negative control. A twofold dilutions series of cell culture supernatant of HEK 293E cells overexpressing BiP was also coated to the plate for anti-FLAG-tag antibody control purposes. Plates were washed and blocked with ½*Blocking reagent (Roche). Undiluted cell culture supernatant enriched with 0.1% Tween20 was added to the wells with immobilized protein ligands and incubated for 1 h at room temperature with agitation. Medium was discarded and the plate was washed with PBS with 0.1% v/v Tween20. Mouse monoclonal anti-FLAG-tag antibody (Sigma, A8592, anti-FLAG M2PO conjugate) was diluted 1000× in PBS/0.1% Tween20 and added to all wells, including those that are coated with cell culture supernatant. After a 1 h incubation at room temperature with agitation and after washing, wells were overlayed with 3000× diluted RAMPO (DAKOCytomation) in PBS/0.1% Tween20. After 30 minutes the plate was washed and bound peroxidase was visualised with tetramethylbenzidine (TMB, #45.103.20/#45.014.01, Biosource, Nivelles, Belgium). The reaction was stopped after 5 minutes with 10% H2SO4 in H2O. Plates were read at 450 nm.

A further test deals with HUVECs. The experiment in a line: Adhesion of HUVECs to immobilized misfolded proteins under influence of BiP (LDH read-out). Type of test: cell-based, human. The note with it: BiP approximately 200 μg/ml. The method, then: HUVECs are primary endothelial cells (ECs), isolated from umbilical cords using 0.1% collagenase (Sigma, C0130, 100 mg, dissolved in 100 ml M199 medium supplemented with 10% FCS (Gibco 10106-169) and Penicillin-Streptomycin (P/S, Gibco, 15140-122)), according to widespread used standard procedures known to a person skilled in the art. HUVECs have the typical features of ECs, e.g. cobblestone morphology and von Willebrand factor storage in Weibel-Palade bodies. HUVECs can regularly be cultured up to passage 5; beyond passage 5 HUVECs loose typical EC markers. The isolation is described here in brief. The umbilical cord is washed for less than 3 minutes in ethanol and subsequently with PBS. The vein is connected to canules and flushed with 10 ml PBS, followed by loading with the 0.1% collagenase solution. After a 15 minute-incubation at 37° C., the detached endothelial cell suspension is recovered by flushing the vein with 10 ml medium which is subsequently added to the collagenase solution. The EC suspension is centrifuged for 5 minutes at room temperature, at low g-force. Supernatant is discarded and the cell pellet is resuspended in 5 ml ‘rich medium’ (EGM-2; Endothelial basal medium (EBM-2, Cambrex, CC-3156) and Singlequots containing supplements for endothelial cells (Cambrex, CC-4176)). Cells (passage 0, P0) are seeded in a culture flask coated with 0.5% gelatin (Sigma, G1393). To facilitate the adhesion of the endothelial cells, human fibronectin is added to the cell culture at a final concentration of 2 μg/ml. EC's are cultured at 37° C., at 5% CO2. The cell culture medium is refreshed every 2-3 days up to when the cells grow to confluency. Then, with the addition of trypsin-EDTA, the cells are detached from the flask, centrifuged at low g-force, resuspended in rich medium and seeded in larger 0.5% gelatin-precoated cell culture flasks.
In 96-wells plates (Immulon high-binding plates, Thermo Labsystems 3355) proteins, i.e. BSA-AGE, control BSA, IgIV Gammagard, crossbeta dIgIV-86 at 5 μg/ml, 10 μg/ml misfolded oxLDL, or gelatin (Sigma G1393, 2% solution in H2O or PBS, positive control for adhesion to ECs) were coated using 100 μl solutions, in six wells for each condition. Following incubation for 2 hours at 37° C. the solutions were discarded and the wells blocked for 1 hour at 37° C. with 100 μl/well of 1% polyvinyl-pyrrolidone (PVP, Sigma P5288) in PBS, filter (0.22 μm) sterilized. […] Subsequently, the block solution was discarded. Next, the plates were incubated with 40 μl RPMI 1640 medium (Gibco, 52400) and 10 μl of the potential inhibitor, i.e. recombinant human BiP at approximately 200 μg/ml final concentration. HUVECs were obtained by trypsinization. […] The absorbance at 490 nm was measured on a Versamax microplate reader at various time points.

T1 sequence (P11021 19-654): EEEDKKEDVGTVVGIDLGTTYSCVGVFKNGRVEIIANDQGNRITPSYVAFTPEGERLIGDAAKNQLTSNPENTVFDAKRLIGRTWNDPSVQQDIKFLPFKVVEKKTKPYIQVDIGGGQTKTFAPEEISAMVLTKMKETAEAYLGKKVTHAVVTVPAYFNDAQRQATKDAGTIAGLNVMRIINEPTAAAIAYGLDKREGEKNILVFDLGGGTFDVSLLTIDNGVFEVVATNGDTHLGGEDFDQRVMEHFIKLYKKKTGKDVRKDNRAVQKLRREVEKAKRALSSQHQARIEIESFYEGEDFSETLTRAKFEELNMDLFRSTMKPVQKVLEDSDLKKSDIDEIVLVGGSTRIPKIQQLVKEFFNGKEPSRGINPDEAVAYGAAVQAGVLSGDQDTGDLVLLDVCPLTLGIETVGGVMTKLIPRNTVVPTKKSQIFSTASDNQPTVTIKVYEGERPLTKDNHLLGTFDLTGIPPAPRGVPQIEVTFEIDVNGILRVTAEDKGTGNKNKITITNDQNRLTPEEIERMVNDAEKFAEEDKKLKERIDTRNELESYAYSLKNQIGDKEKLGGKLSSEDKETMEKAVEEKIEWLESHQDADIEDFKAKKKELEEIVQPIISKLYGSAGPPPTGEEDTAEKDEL

Turning to “KRLEVDIDIKIRS [FP13, synthetic fibrin fragment comprising crossbeta structure]”, the “Binding of concentration series of BiP to coated ligand” value in the test with human BiP [1] is “has been established”. In addition, the “Activation of factor XII in plasma (conversion of S-2222)” value in the test with factor XII in plasma is “stimulates the conversion of S-2222”.
As for “d-lysozyme: heat-denatured hen egg-white lysozyme”, the “Binding of BiP to immobilized protein (ELISA)” value with human BiP [2] is reported as “more pronounced”.
For gelatin, the “Number of adhered HUVECs after preincubation of coated protein with BiP” value in the test with HUVECs was “hardly increase”.

The values are drawn from patent US20100015126A1, “Methods of Binding of Cross-Beta Structures By Chaperones” (priority 2006, published 2010).
